In assay [1] the target is RSV F protein of subtype A (strain A2) on recombinant mKate-RSV (respiratory syncytial virus subtype A (strain A2)) (UniProt P03420). The assay can be described thus: cell-based or functional assay.
The target of assay [2] is human metapneumovirus (HMPV) F protein on GFP-expressing hMPV recombinant virus (NL/1/00, A1 sublineage) (human metapneumovirus). The assay can be described thus: cell-based or functional assay.

For the substance MPE8 (antibody), the RSV-A2 IC50 in assay [1] was found to be 0.04 µg/mL. In addition, the HMPV-A1 IC50 in assay [2] turned out to be 0.07 µg/mL.

The values are drawn from patent US20200223906A1.
